Laboratory results as given in publication PMC10716131, “Structural and biophysical comparisons of the pomalidomide- and CC-220-induced interactions of SALL4 with cereblon” (Scientific Reports, 2023).

Target: T1, DDB1:CRBN complex, full-length human CRBN (residues 1–442) with N-terminal biotinylated Avi-tag, co-expressed … (human, UniProt Q96SW2 1-442; Q16531 1-1140, biotin on the Avi-tag (BirA, 100% efficiency))
T1 construct: cereblon (CRBN), human, full-length, residues 1–442; DDB1, human, residues 1–1140; A 6xGS linker stands between the non-cleavable Avi-tag and CRBN; The host is named (Sf21) only for the crystallisation construct; also called DDB1:N-avi-biotin-CRBN; DDB1:N-avi-CRBN; source: biotinylated with BirA; not shown: Avi-tag, N-terminal, kept
T1 sequence (Q96SW2 whole entry, chain 1 of 2, the tested form may be a part): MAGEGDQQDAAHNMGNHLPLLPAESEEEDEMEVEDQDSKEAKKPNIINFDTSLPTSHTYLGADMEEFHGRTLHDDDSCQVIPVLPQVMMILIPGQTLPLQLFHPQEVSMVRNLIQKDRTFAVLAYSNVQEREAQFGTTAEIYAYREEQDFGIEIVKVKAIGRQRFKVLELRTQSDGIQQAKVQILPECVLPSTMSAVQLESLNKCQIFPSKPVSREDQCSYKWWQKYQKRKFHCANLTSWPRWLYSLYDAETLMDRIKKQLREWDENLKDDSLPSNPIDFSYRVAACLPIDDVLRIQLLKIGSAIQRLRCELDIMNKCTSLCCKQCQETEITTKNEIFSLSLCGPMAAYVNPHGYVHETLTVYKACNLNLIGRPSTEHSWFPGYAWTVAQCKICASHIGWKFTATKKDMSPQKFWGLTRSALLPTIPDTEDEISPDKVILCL
T1 sequence (Q16531 whole entry, chain 2 of 2, the tested form may be a part): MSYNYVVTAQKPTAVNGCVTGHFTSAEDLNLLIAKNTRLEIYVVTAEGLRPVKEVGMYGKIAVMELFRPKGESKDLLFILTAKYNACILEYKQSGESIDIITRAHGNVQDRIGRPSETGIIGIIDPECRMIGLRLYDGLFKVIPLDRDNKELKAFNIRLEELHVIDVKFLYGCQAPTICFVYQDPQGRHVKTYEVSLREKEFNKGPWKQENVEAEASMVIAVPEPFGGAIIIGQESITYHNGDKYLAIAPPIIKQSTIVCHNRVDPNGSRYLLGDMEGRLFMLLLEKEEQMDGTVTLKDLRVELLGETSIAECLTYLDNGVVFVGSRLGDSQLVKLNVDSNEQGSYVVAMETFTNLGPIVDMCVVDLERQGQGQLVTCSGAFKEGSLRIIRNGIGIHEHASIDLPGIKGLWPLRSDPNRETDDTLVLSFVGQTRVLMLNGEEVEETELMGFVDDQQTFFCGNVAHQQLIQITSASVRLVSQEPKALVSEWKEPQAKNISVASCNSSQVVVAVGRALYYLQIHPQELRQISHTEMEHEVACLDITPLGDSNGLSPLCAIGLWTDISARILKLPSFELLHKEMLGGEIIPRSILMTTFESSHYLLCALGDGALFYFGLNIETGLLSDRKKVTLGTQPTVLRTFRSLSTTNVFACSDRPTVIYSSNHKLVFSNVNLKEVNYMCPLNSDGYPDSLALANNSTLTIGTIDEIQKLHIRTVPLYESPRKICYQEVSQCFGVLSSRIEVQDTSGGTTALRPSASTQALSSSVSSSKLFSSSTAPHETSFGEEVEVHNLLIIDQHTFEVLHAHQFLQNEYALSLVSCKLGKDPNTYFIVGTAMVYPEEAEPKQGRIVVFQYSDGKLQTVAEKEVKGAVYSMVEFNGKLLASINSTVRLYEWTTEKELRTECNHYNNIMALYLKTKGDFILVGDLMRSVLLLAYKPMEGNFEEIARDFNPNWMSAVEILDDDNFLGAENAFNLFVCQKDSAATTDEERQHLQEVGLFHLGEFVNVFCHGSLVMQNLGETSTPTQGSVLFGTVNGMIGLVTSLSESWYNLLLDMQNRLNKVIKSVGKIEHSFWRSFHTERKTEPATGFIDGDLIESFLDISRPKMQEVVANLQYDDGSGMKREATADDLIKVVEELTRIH
Test: SPR; DDB1:N-avi-biotin-CRBN immobilised on a streptavidin sensor (~5000–7000 RU), Biacore 8k, ABA method; SALL4 zinc fingers in 2X dilution series with 5 μM pomalidomide throughout; PBS pH 7.2, 5% glycerol, total NaCl ~300 mM, 0.01% P20, 1 mM TCEP, 0.05% DMSO; 15 °C; 30 µL/minute; 1:1 kinetic modelling
Settings: both partners purified

KD with pomalidomide: > 50 µM
B1: Human SALL4 ZF1(370–409) (domain or fragment, UniProt Q9UJQ4 370-409, looked up)
chain: DVKPKDEAALYKHKCKYCSKVFGTDSSLQIHLRSHTGERP
notes: not shown: Twin-Strep-ZZ, N-terminal, cleaved
